Consider one substance from patent US20230364234A1.

The target of test [1] is CD4-10-17b CAR with an inserted myc epitope, expressed on cells transduced with the SFFV/CAR-T-myc/GFP lentivirus (human) (UniProt P01730). The experiment in a line: flow cytometry, primary human T cells transduced with SFFV/CAR-T-myc/GFP, gated CD8+GFP+.
Test [2] has the same target. The experiment in a line: cell-based or functional assay.
For test [3] the target is unchanged. The experiment in a line: flow cytometry, primary human T cells transduced with SFFV/CAR-T-myc/GFP, gated CD4+GFP+. (In flow cytometry, cells or beads pass a laser one at a time.)

In turn, 9E10 anti-myc epitope antibody came in with a percent of transduced CD8+ T cells bound in test [1] of 25%. In addition, in test [2], the IFN-γ production by CD4+ GFP+ T cells (flow cytometry, overnight stimulation) came out at 3 fold. In addition, in test [3], the percent of transduced CD4+ T cells bound was 35%.
